Results on 3 molecules are retold here after patent US20030175364A1, “Process for binding carotenoids to proteins and the products thereof” (priority 2002, published 2003).

The experiment in a line: Binding of lutein to selected proteins at ng scale (hexane extraction, absorbance at 280 and 446 nm). On the procedure:
The carotenoid used in this Example 3 was lutein in dry cake form (Kemin Foods, L.C., Des Moines, Iowa). The cake was dissolved in THF at a concentration of approximately 5.28 mM (3 mg lutein in 1 ml THF). Four hundred nanograms of a selected protein (bovine and chicken albumin, gamma-globulins, Kunitz inhibitor, Bowman-Birk inhibitor, whey, and soy protein isolates 873 and 891 from Archer Daniels Midland, DeKalb, Ill.) were added to 200 μl Tris buffer (1.74 g Trizma crystals and 0.42 g calcium chloride added to 250 ml de-ionized H2O, pH 8.74) together with 2 μl of the lutein/THF solution. These reaction solutions were prepared in microcentrifuge tubes (1.5 ml), mixed, and allowed to react at 4° C., overnight, and in the dark. In addition, all reactions were performed in the presence of an alternative metal ion selected from the group Mg^++, Mn^++, Fe^+++, K^+, and Ca^++(MgCl2 6H2O, MnCl24H2O, FeCl3 6H2O, KCl, and CaCl2) at 60 μM concentration.
The hexane wash, vortex and centrifuge procedure was repeated six times. The supernatant was extracted and combined from all six washes and used later to compare absorbance vs. aqueous phase.
Protein and lutein content in the protein solutions and solvents used for extraction were determined by measuring the absorbance at 280 and 446 nm using a spectrophotometer.
The results are compiled and are reported in weight:weight or mol:mol (when available) ratios.

For the molecule Bovine Serum Albumin: bovine albumin, the “Lutein/Protein Ratio mol/mol” value reads like this: (Ca^2+ 60 μM) 506 mol/mol; (Fe^3+ 60 μM) 365 mol/mol; (K^+ 60 μM) 383 mol/mol; (Mg^+ 60 μM) 294 mol/mol; (w/o metal ions) 306 mol/mol. Further, the “Lutein/Protein Ratio w/w” value worked out at 4.29 w/w (Ca^2+ 60 μM); 3.1 w/w (Fe^3+ 60 μM); 3.24 w/w (K^+ 60 μM); 2.49 w/w (Mg^+ 60 μM); 2.59 w/w (w/o metal ions).

B1: Chicken Serum Albumin: chicken albumin (protein, UniProt P19121 24-615, looked up)
Albumin: FARDAEHKSEIAHRYNDLKEETFKAVAMITFAQYLQRCSYEGLSKLVKDVVDLAQKCVANEDAPECSKPLPSIILDEICQVEKLRDSYGAMADCCSKADPERNECFLSFKVSQPDFVQPYQRPASDVICQEYQDNRVSFLGHFIYSVARRHPFLYAPAILSFAVDFEHALQSCCKESDVGACLDTKEIVMREKAKGVSVKQQYFCGILKQFGDRVFQARQLIYLSQKYPKAPFSEVSKFVHDSIGVHKECCEGDMVECMDDMARMMSNLCSQQDVFSGKIKDCCEKPIVERSQCIMEAEFDEKPADLPSLVEKYIEDKEVCKSFEAGHDAFMAEFVYEYSRRHPEFSIQLIMRIAKGYESLLEKCCKTDNPAECYANAQEQLNQHIKETQDVVKTNCDLLHDHGEADFLKSILIRYTKKMPQVPTDLLLETGKKMTTIGTKCCQLGEDRRMACSEGYLSIVIHDTCRKQETTPINDNVSQCCSQLYANRRPCFTAMGVDTKYVPPPFNPDMFSFDEKLCSAPAEEREVGQMKLLINLIKRKPQMTEEQIKTIADGFTAMVDKCCKQSDINTCFGEEGANLIVQSRATLGIGA
Take B1: the “Lutein/Protein Ratio mol/mol” value reads like this: (Ca^2+ 60 μM) 67 mol/mol; (Fe^3+ 60 μM) 71 mol/mol; (K^+ 60 μM) 95 mol/mol; (Mg^+ 60 μM) 116? mol/mol; (w/o metal ions) 105 mol/mol. Further, the “Lutein/Protein Ratio w/w” value (Ca^2+ 60 μM) is recorded as 0.84 w/w; the “Lutein/Protein Ratio w/w” value (Fe^3+ 60 μM) was 0.9 w/w; the “Lutein/Protein Ratio w/w” value (K^+ 60 μM) is recorded as 1.2 w/w; the “Lutein/Protein Ratio w/w” value (Mg^+ 60 μM) stood at 1.16 w/w; the “Lutein/Protein Ratio w/w” value (w/o metal ions) stood at 1.33 w/w.

B2: Kunitz: soybean Kunitz proteinase inhibitor (protein, UniProt P01070 25-205, looked up)
Trypsin inhibitor A: DFVLDNEGNPLENGGTYYILSDITAFGGIRAAPTGNERCPLTVVQSRNELDKGIGTIISSPYRIRFIAEGHPLSLKFDSFAVIMLCVGIPTEWSVVEDLPEGPAVKIGENKDAMDGWFRLERVSDDEFNNYKLVFCPQQAEDDKCGDIGISIDHDDGTRRLVVSKNKPLVVQFQKLDKESL
In the case of B2, the “Lutein/Protein Ratio mol/mol” value is, setting by setting: (Ca^2+ 60 μM) 31 mol/mol; (Fe^3+ 60 μM) 29 mol/mol; (K^+ 60 μM) 24 mol/mol; (Mg^+ 60 μM) 29 mol/mol; (w/o metal ions) 46 mol/mol. Moreover, the “Lutein/Protein Ratio w/w” value (Ca^2+ 60 μM) is on record as 0.78 w/w; the “Lutein/Protein Ratio w/w” value (Fe^3+ 60 μM) was 0.74 w/w; the “Lutein/Protein Ratio w/w” value (K^+ 60 μM) turned out to be 0.6 w/w; the “Lutein/Protein Ratio w/w” value (Mg^+ 60 μM) was determined as 0.74 w/w; the “Lutein/Protein Ratio w/w” value (w/o metal ions) was 1.17 w/w.
